From patent publication US20230365674 (published 2023)

What was measured:
Experiment in all cases: ELISA
human NPR1-ANP complex = target: T1, human NPR1-ANP complex (human)
T1 chain 1: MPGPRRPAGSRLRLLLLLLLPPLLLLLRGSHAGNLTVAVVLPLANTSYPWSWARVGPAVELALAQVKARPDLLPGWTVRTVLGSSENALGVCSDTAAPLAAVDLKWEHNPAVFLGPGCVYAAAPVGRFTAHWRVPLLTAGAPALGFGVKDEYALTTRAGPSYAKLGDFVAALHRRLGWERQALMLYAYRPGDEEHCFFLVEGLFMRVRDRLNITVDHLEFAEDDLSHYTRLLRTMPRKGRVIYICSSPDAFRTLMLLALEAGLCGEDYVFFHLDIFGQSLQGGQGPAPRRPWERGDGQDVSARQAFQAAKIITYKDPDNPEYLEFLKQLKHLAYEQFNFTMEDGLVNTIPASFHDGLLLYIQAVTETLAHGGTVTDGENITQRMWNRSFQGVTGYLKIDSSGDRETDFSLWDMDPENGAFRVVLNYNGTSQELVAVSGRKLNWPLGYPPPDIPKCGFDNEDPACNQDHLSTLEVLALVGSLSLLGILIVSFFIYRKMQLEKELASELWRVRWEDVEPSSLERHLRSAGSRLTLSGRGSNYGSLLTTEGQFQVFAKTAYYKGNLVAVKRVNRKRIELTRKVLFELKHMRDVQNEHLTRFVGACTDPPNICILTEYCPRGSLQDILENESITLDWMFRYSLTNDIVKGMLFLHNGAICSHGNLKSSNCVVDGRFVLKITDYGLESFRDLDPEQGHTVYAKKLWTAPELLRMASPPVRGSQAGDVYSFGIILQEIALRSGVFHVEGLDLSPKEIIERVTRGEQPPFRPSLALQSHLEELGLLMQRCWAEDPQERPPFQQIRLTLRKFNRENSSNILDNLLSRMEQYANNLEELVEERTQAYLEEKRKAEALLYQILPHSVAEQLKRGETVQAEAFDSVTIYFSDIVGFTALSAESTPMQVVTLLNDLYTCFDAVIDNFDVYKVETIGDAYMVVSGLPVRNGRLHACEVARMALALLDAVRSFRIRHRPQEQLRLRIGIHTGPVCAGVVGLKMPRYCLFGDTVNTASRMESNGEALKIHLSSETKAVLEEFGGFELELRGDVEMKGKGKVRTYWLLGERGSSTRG
T1 chain 2: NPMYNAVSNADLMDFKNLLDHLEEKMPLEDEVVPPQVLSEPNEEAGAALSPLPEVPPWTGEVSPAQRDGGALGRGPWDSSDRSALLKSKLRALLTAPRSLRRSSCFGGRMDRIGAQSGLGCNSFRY

human NPR1 = target: T2, human NPR1 (human)
T2 chain: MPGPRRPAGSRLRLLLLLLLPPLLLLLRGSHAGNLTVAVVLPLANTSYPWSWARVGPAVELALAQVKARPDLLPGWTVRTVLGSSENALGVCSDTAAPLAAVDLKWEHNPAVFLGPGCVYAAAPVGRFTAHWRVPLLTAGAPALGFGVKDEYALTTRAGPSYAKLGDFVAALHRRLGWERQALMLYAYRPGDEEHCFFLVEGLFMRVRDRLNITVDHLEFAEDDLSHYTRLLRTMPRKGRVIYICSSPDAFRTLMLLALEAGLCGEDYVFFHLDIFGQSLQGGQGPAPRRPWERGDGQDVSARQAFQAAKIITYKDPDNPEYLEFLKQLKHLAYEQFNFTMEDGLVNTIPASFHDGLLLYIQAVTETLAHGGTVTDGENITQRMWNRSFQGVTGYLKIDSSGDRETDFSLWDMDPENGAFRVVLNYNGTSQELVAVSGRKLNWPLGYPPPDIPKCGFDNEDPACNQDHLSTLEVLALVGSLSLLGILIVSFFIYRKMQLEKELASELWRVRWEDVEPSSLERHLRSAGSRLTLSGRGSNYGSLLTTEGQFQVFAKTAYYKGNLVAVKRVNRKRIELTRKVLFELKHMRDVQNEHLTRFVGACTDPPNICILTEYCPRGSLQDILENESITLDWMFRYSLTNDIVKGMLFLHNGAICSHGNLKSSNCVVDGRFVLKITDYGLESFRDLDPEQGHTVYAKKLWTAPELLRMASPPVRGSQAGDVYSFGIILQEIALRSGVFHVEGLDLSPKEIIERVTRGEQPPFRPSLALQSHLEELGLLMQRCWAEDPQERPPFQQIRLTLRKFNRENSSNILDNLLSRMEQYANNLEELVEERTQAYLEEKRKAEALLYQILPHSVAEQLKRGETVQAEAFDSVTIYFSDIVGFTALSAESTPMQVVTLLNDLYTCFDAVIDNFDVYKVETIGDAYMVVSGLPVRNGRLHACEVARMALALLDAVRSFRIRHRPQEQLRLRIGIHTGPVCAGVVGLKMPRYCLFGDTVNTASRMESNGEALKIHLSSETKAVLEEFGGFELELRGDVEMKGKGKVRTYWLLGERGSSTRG

human NPR3 = target: T3, human NPR3 (human, UniProt P17342)
T3 chain: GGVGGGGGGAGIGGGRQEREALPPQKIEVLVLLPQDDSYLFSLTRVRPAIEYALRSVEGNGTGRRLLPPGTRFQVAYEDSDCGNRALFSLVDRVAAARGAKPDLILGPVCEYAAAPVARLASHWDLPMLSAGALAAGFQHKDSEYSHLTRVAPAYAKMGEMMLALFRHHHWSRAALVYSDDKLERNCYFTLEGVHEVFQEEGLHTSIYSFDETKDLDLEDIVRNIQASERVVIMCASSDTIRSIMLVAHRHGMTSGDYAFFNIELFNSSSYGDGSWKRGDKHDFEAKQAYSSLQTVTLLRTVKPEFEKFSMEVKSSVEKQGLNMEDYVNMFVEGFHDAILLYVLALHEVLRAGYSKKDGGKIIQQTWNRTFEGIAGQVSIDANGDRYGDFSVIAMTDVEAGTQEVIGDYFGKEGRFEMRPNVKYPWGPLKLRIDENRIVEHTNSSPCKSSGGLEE

human NPR3 + ANP = target: T4, human NPR3 + ANP (human, UniProt P17342)
T4 chain 1: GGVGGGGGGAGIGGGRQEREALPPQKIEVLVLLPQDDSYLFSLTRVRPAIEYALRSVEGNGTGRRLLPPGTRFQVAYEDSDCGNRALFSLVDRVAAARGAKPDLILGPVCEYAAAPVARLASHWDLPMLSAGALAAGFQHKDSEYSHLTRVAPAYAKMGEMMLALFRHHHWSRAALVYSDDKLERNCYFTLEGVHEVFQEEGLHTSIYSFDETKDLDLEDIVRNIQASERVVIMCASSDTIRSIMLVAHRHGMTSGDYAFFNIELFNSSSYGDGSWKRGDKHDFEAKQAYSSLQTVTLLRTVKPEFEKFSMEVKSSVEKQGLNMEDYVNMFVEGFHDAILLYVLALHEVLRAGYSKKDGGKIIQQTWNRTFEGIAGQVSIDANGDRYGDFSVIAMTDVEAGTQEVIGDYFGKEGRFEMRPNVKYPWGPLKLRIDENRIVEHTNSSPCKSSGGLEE
T4 chain 2: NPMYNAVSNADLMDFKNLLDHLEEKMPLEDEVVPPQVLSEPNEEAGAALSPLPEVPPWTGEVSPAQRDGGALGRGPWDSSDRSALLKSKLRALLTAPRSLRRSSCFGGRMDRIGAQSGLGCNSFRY

B1: WW06 IgG (antibody, V domains shown)
VH: QVQLVQSGAEVKKPGESLKISCKGSGYSFTSYWIAWVRQMPGKGLEWMGRIDPDNSYTRYSPSFQGQVTISADKSISTAYLQWSSLKASDTAMYYCARWLSPGYALGEQPAGMDHWGQGTLVTVSS
VL: DIVLTQPPSVSGAPGQRVTISCTGSSSNIGAGYAVHWYQQLPGTAPKLLIYSNNKRPSGVPDRFSGSKSGTSASLAITGLQAEDEADYYCQSYDLQKSSRVFGGGTKLTVL
Question: How did the EC50 (human NPR1-ANP complex) turn out when B1 was run?
Answer: 1.1 nM

Question: What about the EC50 (human NPR1) of the same binder?
Answer: 2.5 nM

Question: Does B1 bind (human NPR3)?
Answer: no binding

Question: Does B1 bind (human NPR3 + ANP)?
Answer: no binding
